In article PMC8406172, “Mechanism of DNA Interaction and Translocation by the Replicase of a Circular Rep-Encoding Single-Stranded DNA Virus” (mBio, 2021):

How the values were obtained:
[1] = test system: O=c1ccn([C@@H]2O[C@H](COP(=O)(O)OP(=O)(O)OP(=O)(O)O)[C@@H](O)[C@H]2O)c(=O)[nH]1; test: purified protein; details: 66 nM Rep, room temperature; copurifying DNA present
Description: (§1) NTP/NADH-coupled spectrophotometric assay (pyruvate kinase / lactate dehydrogenase) on PCV2 Rep (replicase)

[2] = test system: Nc1nc2c(ncn2[C@@H]2O[C@H](COP(=O)(O)OP(=O)(O)OP(=O)(O)O)[C@@H](O)[C@H]2O)c(=O)[nH]1; test: purified protein; details: 66 nM Rep, room temperature; copurifying DNA present
Description: as §1

[3] = test system: Nc1ccn([C@@H]2O[C@H](COP(=O)(O)OP(=O)(O)OP(=O)(O)O)[C@@H](O)[C@H]2O)c(=O)n1; test: purified protein; details: 66 nM Rep, room temperature; copurifying DNA present
Description: as §1

[4] = biological target: porcine circovirus 2 (PCV2) replicase (Rep) (porcine circovirus 2 (PCV2b)); test: cryo-EM structure

Substance | K0.5 [1] [µM] | kcat [1] [s⁻¹] | K0.5 [2] [µM] | kcat [2] [s⁻¹] | K0.5 [3] [µM] | kcat [3] [s⁻¹] | stoichiometry N [4]
PCV2 Rep (replicase) (Porcine circovirus 2) | 78.5 | 0.24 | 577.2 | 0.56 | 284.4 | 0.16 | 
porcine circovirus 2 (PCV2) replicase (Rep) (enzyme) |  |  |  |  |  |  | 6
